Experimental findings from paper PMC4352895 (2015) are described below.

To fix the notation:
B1: H3K27me2 (peptide)
chain: QLATKAARKSAPATG
modifications: dimethyl-Lys27 (mature numbering; K28 of precursor). Taken as the H3K27me2 peptide of the Figure 5C table; limits are mature 19-33 by convention for Eed binding peptides, not given

Ends that are not written are not given here. Me3 = trimethyl-lysine; Me2 = dimethyl-lysine

In this assay the target is ΔEed (Eed residues 77 to 441) (UniProt O75530 77-441). Description: ITC.
Chain of ΔEed (Eed residues 77 to 441) (O75530 77-441, stated change not applied): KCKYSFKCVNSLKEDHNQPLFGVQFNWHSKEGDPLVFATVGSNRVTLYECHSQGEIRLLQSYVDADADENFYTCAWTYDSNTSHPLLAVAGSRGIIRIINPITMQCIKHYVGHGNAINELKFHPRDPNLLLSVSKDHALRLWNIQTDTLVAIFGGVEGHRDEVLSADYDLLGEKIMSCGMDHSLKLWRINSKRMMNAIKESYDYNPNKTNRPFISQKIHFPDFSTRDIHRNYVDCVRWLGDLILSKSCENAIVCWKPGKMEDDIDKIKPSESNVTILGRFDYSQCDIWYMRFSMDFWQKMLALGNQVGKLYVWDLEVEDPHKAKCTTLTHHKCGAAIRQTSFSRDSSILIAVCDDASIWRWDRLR
Broadly, the Kd is a measure of binding affinity in units of concentration. For the molecule QLATKAARKSAPATG (trimethyl-lysine at K27) [H3K27me3 peptide], the Kd was found to be 36.4 µM. Turning to B1, the affinity, expressed as Kd, was 68 µM.

As for RLQAQRK(Me2)FAQSQY [Jarid2-K116me2 peptide], binding was characterised by a dissociation constant (Kd) of 10.4 µM. Next, RLQAQRK(Me3)FAQSQY [Jarid2-K116me3 peptide]: 3.4 µM.
